Reference: the nanobody polyreactivity screen of Harvey et al. (2022)

Assay: yeast display, Sf9 membrane polyspecificity reagent, FACS + sequencing; frameworks hold sequencing errors
Procedure, shortened: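 Genes from sorted yeast were amplified by colony PCR, read by MiSeq 2 × 250 sequencing and filtered on CDR length. These cells carried a synthetic nanobody library in Saccharomyces cerevisiae BJ5465 and were sorted by FACS into low and high (top ~1%) gates on anti-HA and streptavidin fluorescence. Polyreactivity is labelled according to the gate of origin.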

In the case of “QVQLVESGGGLVQAGGSLRLSCAASGRIITYYAMGWYRQAPGKERELVAAITASGSRTYYADSVKGRFTISRDNAKNTVYLQMNSLKPEDTAVYYCAALSRLSPLSGSYYWGQGTQVTVSS”, the “polyreactivity (PSR sort gate)” value is reported as “high polyreactivity”.
With “QVQLVESGGGLVQAGGSLRLSCAASGRTINRYAMGWYRQAPGKESELVASINKSGTSTYYADAVKGRFTISRDNAKNTVYLQMNCLKPEDTGVYYWKTRYFWCSTYDYWGQGTEVTVSS” the “polyreactivity (PSR sort gate)” value was “high polyreactivity”.
In the case of “QVQLVESGGGLVQAGGSLRLSCAASGFTFTYYAMGWYRQAPGKERELVAGISRSGGSTYYADSVKGRFTISRDNAKNTVYLQMNSLKPEDTAVYYCAATAYSPRGKRYDSWGQGTQVTVSS”, the “polyreactivity (PSR sort gate)” value is reported as “high polyreactivity”.
With “QVQLVESGGGLVQAGGSLRLSCAASGSTFTPYVMGWYRQAPGKEREMVASITGGGGSTYADSVKGRFTISRDNAKNTVYVQMNSLKPEDTAVYYCAAELYRSNVYHYDYWGQGSQVTVSS” the “polyreactivity (PSR sort gate)” value was “high polyreactivity”.
For “QVQLVESGGGLVQAGGSLRLSCAGSGLIFRIYAMGWYTQAPGKEREFVAAIRWRGGSTYYADSVKGRFTISRDNAKNTVYLQMNSLKPEDSAVYYCAVRYCPYRPRLDYWGQGTQVTVSS”, the “polyreactivity (PSR sort gate)” value was “high polyreactivity”.
For “QVQLVESGGGLVQAGGSLRLSCAASGRISKYNAMGWYRQAPGKERELVAAINQRGTSTYYADSVKGRFTISRDNEMNTVYLQMNSLKPEDTAVYYCATTGYRFYLMDYWGQGTQVTVSS”, the “polyreactivity (PSR sort gate)” value was “low polyreactivity”.
For “QVQLVESGGGLVQAGGRHRLSCAASGSTLTRNTMGWYRQAPGIQRELVATITRSGGSTYYADSVKGRFTISRDNAKNTVYLQMNSLKPEDTAVYYCAVRRQTFRYVYPGMDYWGQGTQETVSS”, the “polyreactivity (PSR sort gate)” value was “high polyreactivity”.
In the case of “QVQLVESGRGLVQAGGSLRLSCPASGRTFSTNAMGWYRQAPGKEREFVAVISSSSGSTYYADSVKGRFTISRDNAKNTVYLQMNSLKPEDTAVYYCAAGYRYRVSYSVYEFYYWGQGTQVTVSS”, the “polyreactivity (PSR sort gate)” value is reported as “high polyreactivity”.
In the case of “QVQLVESGGGLVQAGGSLRLSCAASGRTFAYNAMGWYRQAPGKERELVASITSGGSTNYADSVKGRFTISRDNAKNTVYLQKNSLKPEDTAVYYCNKDGKYHRVLYDYWGLGTQVTVSS”, the “polyreactivity (PSR sort gate)” value is reported as “low polyreactivity”.
With “QVQLVESGGGLVQAGGSLRLSCAASGIIFGTNAMGWSRQAPGKERELVAAITWSGGTYYADSVKGRFTISRDNAKNTVYLQMNSLKPEDTAVYYCAADGSGYYDWYYYWGQGTQVTVSS” the “polyreactivity (PSR sort gate)” value was “low polyreactivity”.
In the case of “QVQLVESGGGLVQAGGSLRLSCAASGFIIIGYVMGWYRQAPGKERELVAAITSSGGSTYYADSVKGRFTISRDHAKNTVYLQMNSLKPEDTAVYYCAAEYYLLWSGMEYWGQGTQVTVSS”, the “polyreactivity (PSR sort gate)” value is reported as “low polyreactivity”.
With “QVQLVESVGGLVQAGGSLRLSCAASGSIFKSYAMGWYRQAPGKERELVAAITYRGGSTYYADSVKGRFTISRDNAKNTVYLQMNSLKPEDTAVYYCAKDQHRYYQVWGDYWGQGTQVTVSS” the “polyreactivity (PSR sort gate)” value was “high polyreactivity”.
In the case of “QVQLVESGGGLVQAGGSLRLSCAASGRIFGVYAMGWYRQAPGKERELVATITSGGSTSYADSVKGRFTISRDNAKNTVYLQMNSPKPEDTAVYYCNAPYSFFWQQMNYWGQGTQVTVSS”, the “polyreactivity (PSR sort gate)” value is reported as “low polyreactivity”.
With “QVQLVESGGGLVQAGGSLRLSCAASGSIFIYYAMGWYRQAPGKERELVAAISSSGDSTNYADSVKGRFTISRDNAKNTVYLQMNSLKPEDTAVYYCAADPYYFYIWYWWPSFDYWGQGTQVTVSS” the “polyreactivity (PSR sort gate)” value was “low polyreactivity”.
In the case of “QVQLGESGGGLVQAGGSLRLSCAASGSTFITYAMGLYRQAPGKERELVAAITRGGRRYYADSVKGRFTISRDNAKNTVYLQMNSLKPEDTAVYYCAARDWASHTPFDYWGQGTQVTVSS”, the “polyreactivity (PSR sort gate)” value is reported as “high polyreactivity”.
For “QVQLVESGGGLVQAGGSLRLSCAASGYIFKHYAMGWYIQAPGKERELVAAITSGGRTNYADSVKGRFTISRDNAKNTVFLQMNSLIPEDTAVYYCAARRYRYFDGTVPLDYWGQGTLVTVSS”, the “polyreactivity (PSR sort gate)” value was “high polyreactivity”.
For “QVQLVESGGGLVQEGGSLRLSCAASGGTFYAYTMGWYRPAPGTERELVAAISRSGGSTYYADSVKGRITISRDTAKNSVYLQINSLKPEDTAVYYCAAVESGADYYYWGQGTQVTVSS”, the “polyreactivity (PSR sort gate)” value was “high polyreactivity”.
In the case of “QVQLVESGGGIVQAGGSLRLSCAASGNIFSYKAMGWYRQAPRTERELVDAISRSGGSTYYADSVKGRFTISRDNAKNTVYLQMNSLKPEDTAVYYCAADWRGRKYDYWGQGTQVTVSS”, the “polyreactivity (PSR sort gate)” value is reported as “high polyreactivity”.
In the case of “QVQLVESGGGLVQAGGSLRLSCAASGSTFGDYVMGWYRQAPGKERELVATITDSGGSTYYADSVKGRFTISRDNAKNTVYLQMNSLKPEDTAVYYCNKDFSVEVYDTAYNYYSYRYGYWGQGTQVTVSS”, the “polyreactivity (PSR sort gate)” value is reported as “low polyreactivity”.
For “QVQLVESGGGLVQAGGSLRLSCAASGRILRGNAMGGYRQAPGKERELVADINYSDGSTYYADSVKGRFTISRDNAKNTVYLQMNSLKPEDTAVYYCAKKNPLVFTSGMDYWGQGTQVTVSS”, the “polyreactivity (PSR sort gate)” value was “low polyreactivity”.
In the case of “QVQLVESGGGLVQAGGSLRLSCAASGSIFTRYTMGWYRQAPGKERELVAVISDSSGRTYYADSVKGRFTISRDNGKNTVYLQMNSLKPEDTAVYYCAAEYSDIYEYWGQGTQVTVSS”, the “polyreactivity (PSR sort gate)” value is reported as “low polyreactivity”.
In the case of “QVQLVESGGGLVQAGGSLRLSCAASGRIFAAYAMGWYRQAPGKERELVDAISSTGGTTYYADSVKGRFTISRDNAKNTVYLQMNSLKPEDTAVYYCATTVIVTKGSWHYSYDYWGQGTQVTVSS”, the “polyreactivity (PSR sort gate)” value is reported as “low polyreactivity”.
In the case of “QVQLVESGGGLVQAGGSLRLSCAASGSIFGYYAMGWYRQAPGKERELVAAISVRGGSTYYADSVKGRFTISRDNAKNTVYLQMNSLKPEDTAVYYCAARISYSLSYWGQGTQVTVSS”, the “polyreactivity (PSR sort gate)” value is reported as “high polyreactivity”.
In the case of “QVQLVESGGGLVQAGGSHRLSCAASGSTSGINAMGWYRQAPGKERELVAAIRLSGGRTYYADSVKGRFTISRDNAKNTVYLQMNSLKPEDTAVYYCAARYPSRVGYYYLGQGTQVTVSS”, the “polyreactivity (PSR sort gate)” value is reported as “high polyreactivity”.
For “QVQLVESGGGLVQAGCSLRLSCAASGFTFFRNAMGWYRQAPGKERELVAAISGSGGSTYYADSVKGRFTISRDNAKNTVYLQMNSLKPEDTAVYYCATYSYPAKVREAYNYWGQGTQVTVSS”, the “polyreactivity (PSR sort gate)” value was “low polyreactivity”.
With “QVQLVESGGGLVQAGGSLRLSCAASGRIFYINAMGWYRQAPGKERELVASITGSGGRTYYADSVKGRFTISRDNAKNTVYLQMNSLKPEDTAVYYCNADLYVGYLYYLYDYWGQGTQVSVSS” the “polyreactivity (PSR sort gate)” value was “low polyreactivity”.
In the case of “QVQLVESGGGLVQAGGSLRLSCAASGFIFYIYAMGWYRQAPGKERELVAAFTSGGSTYYADSVKGRFTISRDNAKNTVYLQMNSLKPEDTAVYYCAAESYYGYDYWGQGTQVTVSS”, the “polyreactivity (PSR sort gate)” value is reported as “low polyreactivity”.
With “QVQLVESGGGLVQAGGSLRLSCAASGLIFANNAMGWYRQAPGKERELVAVISRGGRTYYADSVKGRFTISRDNAKNTVYLQMNSLKPEDTAVYYCAKPVLVGLGARYVYWGQGTQVTVSS” the “polyreactivity (PSR sort gate)” value was “high polyreactivity”.
With “QVQLEESGGGLVQAGGSLRLSCAASGSTFYEYAMGWYRQAPGKERELVAAITTVGSTNYADSLKGRFTISRDNAKNTVYLQMNSLKPEDTAVYYCNKRPVILYDYWGLGTQVTVSS” the “polyreactivity (PSR sort gate)” value was “low polyreactivity”.
For “QVQLVESGGGLVQAGGSLRLSCAASGFTFTKYAMGWYRQAPGKERELVAAISGRGGSTYYADSVKGRFTISRDNAKNTVYLQMNRLKPEDTAVYYCAKYLYTVAGYNYWGQGTQVTVSS”, the “polyreactivity (PSR sort gate)” value was “high polyreactivity”.
In the case of “QVQLVESGGRLVQAGGSLRLSCAASGSTFVCYAMGWYRQAPGKERELVAAISSGGRTHYADSVMARFTISRDNAKNTVILQMNSLKREDTAFYYCNAAYYILRFRYDYWGQGTQVTVSS”, the “polyreactivity (PSR sort gate)” value is reported as “high polyreactivity”.
With “QVQLVESGGGLVQAGGSLRLSCAASGRIFLDYVMGWYRQAPGKEREVVAAISWSGDRTDYADSVKGRFTISLDNAKNTVYLQMNSLKPEDTAVYYCATTWYFAYSDDYKFDYWGQGTQVTVSS” the “polyreactivity (PSR sort gate)” value was “low polyreactivity”.
With “QVQLVESGGGLVQAGGSLRLSCAASGFTFARNAMGWYRQAPGKERELVAGITSRGSSTSYADSVKGRFTISRDNAKNTVYLQMNSLKPEDTAVYYCAAVPRYRDRGQYGYWGQGTQVTVSS” the “polyreactivity (PSR sort gate)” value was “high polyreactivity”.
For “QVQLVESGGGLVQAGGSLRLSCAASGIIFKIYAMGWYRQAPGKERELVAAITRSGTRTYYADSVKGRFTISRDNAKNTVYLQMNSLKPEDTAVYYCNAYTTLAYDLDYWGQGTQVTVSS”, the “polyreactivity (PSR sort gate)” value was “high polyreactivity”.
In the case of “QVQLVETGGGLVQAGGSLRLSCAASGRIFSPYALGWYRQAPGKERELVAAISYDDGITYYADSVKGRFTISRDNAKNTVYLQMNSLKPEDTAVYYCAADSVTRPAGDYWGQGTQVTVSS”, the “polyreactivity (PSR sort gate)” value is reported as “low polyreactivity”.
In the case of “QVQLVESGGGLVQAGGSLRLSCAASGRIFPDNTLGWYRQAPGKERELVAVITYSGGSTYYADSVKGRFTISRDNAKNTVYLQMNSLKPEDTAVYYCAARDYYIWFAEVDSWGQGTQVTVSS”, the “polyreactivity (PSR sort gate)” value is reported as “low polyreactivity”.
For “QDQLVESGGGLVQAGGSLRLSCAASRSIFYGYATRSYRQEPGKESELVAAISYSGDRTYYADSVKGRFTISRDNAKNTVYLQMNSLKPEDTAVYYCAAESRGVGAYYYRGQGTQVTVSS”, the “polyreactivity (PSR sort gate)” value was “high polyreactivity”.
For “LVQLQECGGGLVQAGGSLRLSCAASGNIFDADIMGWYRQAPCKERELVASVTDGGSTNYADSVKGRFTISRDNAKNTVYLQMNSLKPEDTAVYYCEAIVYPDILTYFDYDYDYFYWGQGTQVTVGS”, the “polyreactivity (PSR sort gate)” value was “low polyreactivity”.
For “QVQLVESGGGLVQAGGSLRLSCAASGRTFSAYAMGWNRQAPGKEREMVAAISSTGRTKYADSVKGRFTISRDNAKNSVYLQMNSLKPEDTAVYYCAARGYYVSPYTYGYWGQGTQVTVSS”, the “polyreactivity (PSR sort gate)” value was “high polyreactivity”.
For “QVQLVESAGGLVQAGGSLRLSCAASGSTFTLYAMGWYRQAPGKERELVAAISWSGDSTYYADSVKGRFTISRDNAKNTVYLQMNSLKPEDTAVYYCAAENVYGYDYWGQGTQVTESS”, the “polyreactivity (PSR sort gate)” value was “high polyreactivity”.
With “QVQLVESGGALVQAGGSLRLSCAASGFTFSAYAMGWYRQAPVKEREMVASISRGGITNYADSVKGRFTISRDNAKNTVYLQMNSLQPEDTAFYYCAVDYSFRYDYVQRYYYWGQGTQVSVSS” the “polyreactivity (PSR sort gate)” value was “high polyreactivity”.
For “QVQLVESGGGLVPAGGSLRLSCAASGYTFQYNDRGWYRHAPGKETELVAGISIGGSTNYADSVKGRFTISRDNAKHTVYLQMNSLKPEDTAVYYCAARTLWFPGPTSTTVGYKDGYWGQGTQVTVSS”, the “polyreactivity (PSR sort gate)” value was “low polyreactivity”.
In the case of “QVQLVESGGGLVQAGGSLRLSCAASGSTFVDYAMGWYRPAPGKERELVAAINSDGGGTYYADSVKGRFTISRDNAKNTVYLQMNSLKPEDTAVYYCAAVGYTTYRRYDYWGQGTQVTVSS”, the “polyreactivity (PSR sort gate)” value is reported as “low polyreactivity”.
